A word on the koff: it is the first-order rate constant of dissociation. A word on the kon: it is the rate constant with which the complex forms. Broadly, the Kd is the concentration at which binding is half-saturated. A word on the EC50: it is the concentration that produces a half-maximal response.

Consider seven molecules from patent US20250263490A1 (VIB VZW, published 2025).

The target of assay [1] is human cation-independent mannose-6-phosphate receptor, native, on cells (human, UniProt P11717 41-2491). In words: cell-based or functional assay.
Assay [2] addresses T1, recombinant human domain 1-3His6 of the cation-independent mannose-6-phosphate receptor (human, UniProt P11717 41-467).
T1 construct: Biotinylated (NHS-PEG4-biotin) for BLI; Glycosylated; also called hDom1-3His6; hCI-M6PRD1-D3
Description: BLI exp 2, dissoc pH 5. On the procedure: (§1) For each of the 11 anti-CI-M6PR VHHs, a biolayer interferometry (BLI) experiment was performed in which the hDom₁₋₃His₆ was biotinylated and coupled to streptavidin biosensor tips. Afterwards, the tips were incubated with serially diluted VHHs during the association phase and dissociation was performed at pH 7.4. Similarly, dissociation was performed at pH 7.0, pH 6.0 and pH 5.0 as well after regeneration of the biosensor tips. […] The anti-CI-M6PR antibody (clone 2G11) and GBP were used as positive and negative controls, respectively.
(§2) Analysis of the binding kinetics was performed using an Octet Red96 (FortéBio) device with Streptavidin SA Biosensor tips (VWR, 733-2145). To this end, 1 mL of hCI-M6PR_D1-D3 (0.5 mg/mL in 50 mM MES, 150 mM NaCl, pH 6.5) was incubated at room temperature for 30 minutes with a two-fold molar excesses of EZ-Link™ NHS-PEG₄-Biotin (Thermo Fischer, A39259) and NaHCO₃ (100 mM, pH 8.3). Biotinylated hCIMPR_D1-D3 was purified using a Zeba spin desalting column (Thermo Fischer, 89890) and protein concentration was calculated by measuring the absorbance at 280 nm (extinction coefficient 50320 M¹ cm⁻¹). Two-fold biotin-labelled antigen was loaded on the tips (2.5 μg/mL) and subsequently dipped into a particular anti-CI-M6PR VHH-containing solution (ranging from 0-100 nM). Serial VHH dilutions were made in kinetics buffer (0.2 M Na₂HPO₄, 0.1 M Na⁺ citrate, 0.01% BSA, 0.002% Tween20, pH 7.4). After association (100 sec), dissociation was conducted (500 sec) for each anti-CI-M6PR VHH in the kinetics buffer, followed by biosensor regeneration in glycine (10 mM, pH 3) and neutralisation. The same cycle was repeated with dissociation performed in kinetics buffer of pH 7.0, 6.5, 6.0, 5.5, and 5.0.
(§3) A reference well and reference sensors were subtracted from ligand sensors afterwards and Savitsky-Golay filtering was applied on the data. Fitting of the data was performed using a 1:1 model, grouped per dissociation pH.

The target in assay [3] is T1, recombinant human domain 1-3His6 of the …. Description: BLI exp 2, dissoc pH 6. On the procedure:
as §1, §2, §3

Assay [4] shares this target. In words: BLI exp 2, dissoc pH 7.
The target is the same in assay [5]. Description: BLI exp 2, dissoc pH 7.4. On the procedure:
as §1
(§4) Analysis of the binding kinetics was performed using an Octet Red96 (FortéBio) device with Streptavidin SA Biosensor tips (VWR 733-2145). Therefore, 1 mL of human domain₁₋₃His₆ (0.5 mg/mL in 50 mM MES, 150 mM NaCl, pH 6.5) was incubated at room temperature for 30 minutes with EZ-Link™ NHS-PEG4-Biotin (1 mg) (Thermo Fischer A39259) and NaHCO₃ (100 mM). Biotinylated human domain₁₋₃His₆ was purified using a Zeba spin desalting Column™ (7K MWCO, 2 mL, Thermo Fischer 89890) and 1 μg/mL was used for immobilization on the Streptavidin SA Biosensor tips. The loaded tips were dipped into a particular anti-CI-M6PR VHH solution, serially diluted in kinetics buffer (0.2M NaH₂PO₄, 0.1M Na⁺ citrate, 0.01% BSA, 0.002% Tween20, pH 7.4). This was followed by dissociation of the particular anti-CI-M6PR VHH in kinetics buffer of pH 7.4, followed by regeneration in Glycine (10 mM, pH 3) and neutralisation. Same cycle was repeated but the dissociation was performed at pH 7.0, 6.0, 5.0, 4.5 and 4.0. A reference well and reference sensors were subtracted from ligand sensors afterwards and Savitsky-Golay filtering was applied on the data. Fitting of the data was performed using a 1:1 model, grouped per pH of dissociation.

The target is the same in assay [6]. Description: BLI at pH 7.4, 1st of 2 repeats. On the procedure: as §1, §4
Assay [7] has the same target. In words: BLI at pH 7.4, 2nd of 2 repeats.
Assay [8] shares this target. Description: ELISA on coated antigen, 2nd of 2 repeats. As for the experimental part:
FIGS. 4A-4B. Affinity of anti-CI-M6PR VHHs for recombinant human CI-M6PR Domain 1-3His₆ determined by ELISA. A & B. Measurements for each of the 11 anti-CI-M6PR VHHs in serial dilution binding to the coated human CI-M6PR Domain 1-3His₆ antigen. Detection was performed using an anti-VHH antibody coupled to HRP, and measured as the absorbance of the TMB substrate at 450 nm, correlating to the amount of bound VHH as plotted at the Y-axis. The Log₁₀ concentrations of the serially diluted VHHs were plotted at the X-axis. […] A & B represent replicates but using a different concentration of human CI-M6PR Domain 1-3His₆ (in (FIG. 4A): 0-0.75 μM and in (FIG. 4B): 0-1 μM).
We evaluated the affinity of the VHHs against the hDom₁₋₃His₆ using ELISA. Coated hDom₁₋₃His₆ was incubated with serially diluted VHH that was afterwards detected using an anti-VHH antibody, coupled to HRP.

B1: anti-CI-M6PR VHH5 (VHH)
VHH: QVQLQESGGGLVQAGGSLKLSCAAAGRTFSRLAMGWFRQAPGKEREFVAAISENGDSIHYSDSVKGRFAVSRDNAKNTVYLQMNSLKPEDTAIYYCAADRAAYYCSGSGCYPSRAPAAASYDYWGQGTQVTVSS
notes: His6-tagged; made in Pichia pastoris, later also in E. coli WK6
In the case of B1, in assay [1], the “internalisation rate (live-cell imaging of AF488-VHH on MCF7 cells)” value stood at 687000 summed AF-voxels/minute. The koff in assay [2] was determined as 0.033 s⁻¹; in assay [3], 0.00029 s⁻¹; in assay [4], 0.00019 s⁻¹; in assay [5], 0.00018 s⁻¹; in assay [6] it was 0.000124 s⁻¹; in assay [7], 0.00018 s⁻¹. In addition, the kon in assay [2] worked out at 2.33e+08 M⁻¹ s⁻¹; in assay [3], 1.7e+06 M⁻¹ s⁻¹; in assay [4], 1.5e+06 M⁻¹ s⁻¹; in assay [5] it was 1.8e+06 M⁻¹ s⁻¹; in assay [6], 1.37e+06 M⁻¹ s⁻¹; in assay [7], 1.8e+06 M⁻¹ s⁻¹. The Kd is 0.0903 nM in assay [6] and roughly 0.1 nM in assay [7]. In addition, the EC50 in assay [8] was found to be 0.0647 nM.

B2: anti-CI-M6PR VHH3 (VHH)
VHH: QVQLQESGGGLVQPGGSLRLSCAAFGLNFKNFDMIWFRQAPGEERDIVAAISSSSSTIWYEDSVKGRFTISRDNAKNTVYLQMNSLKPEDTAVYYCAAALTSWRRPDYWGQGTQVTVSS
notes: His6-tagged; made in Pichia pastoris
On to B2, for which the koff is 0.000369 s⁻¹ in assay [2]; 0.000499 s⁻¹ in assay [3]; 0.000844 s⁻¹ in assay [4]; 0.000345 s⁻¹ in assay [5]; no more than 1e-07 s⁻¹ in assay [6]; 0.000345 s⁻¹ in assay [7]. In addition, the kon in assay [2] was determined as 55600 M⁻¹ s⁻¹; in assay [3], 40600 M⁻¹ s⁻¹; in assay [4], 53000 M⁻¹ s⁻¹; in assay [5], 48600 M⁻¹ s⁻¹; in assay [6], 853000 M⁻¹ s⁻¹; in assay [7], 48600 M⁻¹ s⁻¹. In addition, the Kd in assay [5] was 7.09 nM; in assay [6], no more than 0.000117 nM; in assay [7], 7.1 nM. For the same molecule, the EC50 in assay [8] turned out to be 0.104 nM.

B3: anti-CI-M6PR VHH4 (VHH)
VHH: QVQLQESGGGLVQAGGSLRLSCAASGRTFSNYVMGWFRQAPGKEREFVGSISQGGKMTYYPDSVKGRFTISRDNAKNTMYLQMDGLKPEDTAVYYCAVSRGYPMVRVSEVDYWGQGTQVTVSS
notes: as for B2
On to B3, for which the koff in assay [2] was determined as 0.00729 s⁻¹; in assay [3] it was 0.00126 s⁻¹; in assay [4], 0.00101 s⁻¹; in assay [5], 0.00133 s⁻¹; in assay [7], 0.00133 s⁻¹. Moreover, the kon came out at 729000 M⁻¹ s⁻¹ in assay [2], 572000 M⁻¹ s⁻¹ in assay [3], 316000 M⁻¹ s⁻¹ in assay [4] and 571000 M⁻¹ s⁻¹ in assay [5]. The Kd in assay [5] amounted to 2.34 nM. For the same molecule, the EC50 in assay [8] was determined as 70.1 nM.

B4: anti-CI-M6PR VHH6 (VHH)
VHH: QVQLQESGGGLVQAGGSLRLSCAVSGSISSIGGMGWFRQAPGKQREFVAVILNNSGMTSYADSVKGRFTISRGNSKNTMYLQMNSLKPEDTAVYYCNYSGYWGQGTQVTVSS
notes: His6-tagged; made in E. coli
Turning to B4, the koff in assay [2] came out at 0.0156 s⁻¹; in assay [3] it was 0.00227 s⁻¹; in assay [4], 0.00242 s⁻¹; in assay [5], 0.00352 s⁻¹; in assay [6], 0.00352 s⁻¹; in assay [7] it was 0.00352 s⁻¹. Further, the kon in assay [2] was determined as 330000 M⁻¹ s⁻¹; in assay [3], 718000 M⁻¹ s⁻¹; in assay [4] it was 392000 M⁻¹ s⁻¹; in assay [5] it was 743000 M⁻¹ s⁻¹; in assay [6] it was 1.05e+06 M⁻¹ s⁻¹; in assay [7], 743000 M⁻¹ s⁻¹. Moreover, the Kd is 4.74 nM in assay [5], 3.35 nM in assay [6] and 4.74 nM in assay [7].

B5: anti-CI-M6PR VHH10 (VHH)
VHH: QVQLQESGGGSVQAGGSLRLSCAPAGRTFSRIRMGWFRQAPGKEREFVAAISSGGLSYYADSMKGRFTISRDNAKNTVLLQMNSLEPDDTAVYYCAAVLNDYIDDYVARNPTLYDYWGQGTQVTVSS
notes: as for B2
With B5, the koff in assay [2] was 0.0106 s⁻¹; in assay [3], 0.00205 s⁻¹; in assay [4], 0.00148 s⁻¹; in assay [5], 0.00177 s⁻¹; in assay [6] it was 0.00177 s⁻¹; in assay [7], 0.00177 s⁻¹. For the same molecule, the kon in assay [2] was found to be 91100 M⁻¹ s⁻¹; in assay [3], 39100 M⁻¹ s⁻¹; in assay [4] it was 99300 M⁻¹ s⁻¹; in assay [5] it was 38100 M⁻¹ s⁻¹; in assay [6], 38100 M⁻¹ s⁻¹; in assay [7], 38100 M⁻¹ s⁻¹. Further, the Kd in assay [5] came out at 46.5 nM; in assay [6] it was 46.3 nM; in assay [7], 46.5 nM. The EC50 in assay [8] stood at 0.224 nM.

B6: anti-CI-M6PR VHH11 (VHH)
VHH: QVQLQESGGGLVQAGDSLKLSCTASGPTFSEITGGWFRQVPGKEREFVASISSTGITTYYTDSVKGRFTVSRDNAKNTMYLQMNSLKPEDTGVYYCAARSTSRSIAITVGYDYWGQGTQVTVSS
notes: as for B2
On to B6, for which the koff in assay [2] is 0.0253 s⁻¹; in assay [3] it was 0.00665 s⁻¹; in assay [4] it was 0.00394 s⁻¹; in assay [5] it was 0.00391 s⁻¹; in assay [6], 0.00317 s⁻¹; in assay [7], 0.00391 s⁻¹. In addition, the kon in assay [2] amounted to 225000 M⁻¹ s⁻¹; in assay [3], 195000 M⁻¹ s⁻¹; in assay [4], 194000 M⁻¹ s⁻¹; in assay [5] it was 76700 M⁻¹ s⁻¹; in assay [6], 76700 M⁻¹ s⁻¹; in assay [7] it was 76700 M⁻¹ s⁻¹. Also, the Kd turned out to be 51 nM in assay [5], 41.4 nM in assay [6] and 51 nM in assay [7]. The EC50 in assay [8] is 30.5 nM.

B7: anti-CI-M6PR VHH9 (VHH)
VHH: QVQLQESGGGLVQAGGSLRLSCAASGTILSIKTMGWYRQAPGKEREWVATITSSSIPMYADSVKGRFTISRDDAKNTVYLQMNSLKPEDTGVYYCNAPWTDYWGQGTQVTVSS
notes: as for B2
Take B7: the koff in assay [2] stood at 0.0496 s⁻¹; in assay [3], 0.000122 s⁻¹; in assay [4] it was 0.00051 s⁻¹; in assay [5] it was 0.000444 s⁻¹; in assay [6], 0.000444 s⁻¹; in assay [7], 0.000444 s⁻¹. Moreover, the kon in assay [2] was found to be 590000 M⁻¹ s⁻¹; in assay [3], 615000 M⁻¹ s⁻¹; in assay [4], 379000 M⁻¹ s⁻¹; in assay [5], 1.57e+06 M⁻¹ s⁻¹; in assay [6] it was 1.57e+06 M⁻¹ s⁻¹; in assay [7], 1.57e+06 M⁻¹ s⁻¹. Further, the Kd in assay [5], in assay [6] and in assay [7] was 0.282 nM throughout. Moreover, the EC50 in assay [8] was 0.251 nM.
